How the values were obtained:
Format in all cases: biochemical
PKC-alpha = molecular target: T1, PKC-alpha (Homo sapiens, UniProt P17252); experiment: In vitro kinase assay: peptide phosphorylation by PKC-alpha
T1 construct: purchased Calbiochem
Procedure: (§1) Catalytically active preparations of the kinases of interest were either purchased or prepared. Purchased and tested active kinase preparations including the following: PKC-alpha, PKC-delta, PKC-epsilon, PKC-zeta, PKC-mu, PKA, PKG from Calbiochem, ROK alpha/ROCK-II, active from Upstate Biotechnology, and AKT1 from Panvera.
(§2) The conditions of the kinase assay and the amount of active kinase used varied with the kinase and with the accuracy needed. For a typical experiment, 5-20 ng of kinase was used per well and each peptide pool was assayed in duplicate wells. Note that the absolute amount of kinase used was not usually a critical parameter, because the desired information related to specificity of the kinase not its absolute activity, and robustness of the assay depends on comparisons of the same amount of kinase on different peptides. The combination of kinase concentration and assay duration was modified to assure that the stoichiometry of peptide phosphorylation never exceeded 5%. The choice of kinase buffer depended on the kinase being analyzed. For studies of PKC, 100 mM HEPES, 0.05% Triton-X100, 1 mM CaCl2, 20 mM MgCl2, 0.2 mg/ml phosphatidyl serine (Avanti Polar Lipids), PMA 100 ng/ml was typically used. The lipid stock was prepared by transferring 3 mg phosphatidyl serine into iced mixture of 450 μl water plus 50 μl of 10% Triton-X100, sonicating 10 times on ice for 1 sec each.
(§3) The kinase reaction mixture was assembled by sequential addition to a tube held on ice of: 5 μl peptide (100 μM for final concentration of 10 μM), 15 μl of kinase (typically 5 ng/well, in appropriate kinase buffer), 30 μl of ATP (1 uCi/well of ^32P-gamma ATP in a stock of 167 μM cold ATP in the kinase buffer; for final concentration for 100 μM ATP). The mixture was rapidly warmed to desired reaction temperature (30° C. for PKC) and incubated for the desired duration (usually 10 minutes). The kinase assay was terminated by transfer to 4° C. water batch, and rapid addition of an equal volume (50 μl) of stop solution [0.1M ATP+0.1M EDTA in water, pH 8].
(§4) The peptides were then captured from the reaction mixture by transfer to a Reacti-Bind Streptavidin High Binding Capacity Coated Plates (HBC) (Pierce Biotechnology) as follows. The HBC plates were pre-rinsed three times with PBS/Tween PBS/Tween20 0.05% (PBS/Tween). Part of all of the reaction mixture was then transferred wells of a HBC plate pre-filled with 90 μl of phosphate-buffered saline (PBS); typically each aliquots of each phosphorylation reaction were transferred to duplicate HBC plates to assure accuracy by additional replication
(§5) For kinase assays done at the standard peptide concentration of 10 μM, the peptide concentration in the reaction mixture becomes 5 μM after addition of the stop solution; consequently 10 μl of the reaction (50 pMoles of peptide) was transferred to the HBC plate. More generally, the amount of reaction mixture transferred was estimated to be about 50 pMoles of peptide. […] The HBC plates were incubated for 0.5 to 1.5 hr at room temperature for complete binding of biotinylated peptides to plate-bound streptavidin. The HBC plates were then washed extensively with PBS/Tween. Five washes were done routinely and additional wash steps were added if the wash solution removed from the plate had measurable radioactivity as detected using a Geiger counter. This step is essential to obtaining a good the signal to noise ratio because the fraction of radioactivity incorporated in the peptides was a tiny fraction of the total in the reaction mixture. The wells were air-dried. A volume of 40-50 μl of microScint-20 (Packard Instruments) was added to each well. The plates were covered with stick-on film sheet. Radioactive emissions were measured in a TopCount NXT Microplate Scintillation and Luminescence Counter (Packard Instruments). Typically samples were counted for 5 minutes (or more) to improve the signal to noise ratio when counts were low. […]

PKC-zeta = molecular target: T2, PKC-zeta (Homo sapiens, UniProt Q05513); experiment: In vitro kinase assay: peptide phosphorylation by PKC-zeta
T2 construct: purchased Calbiochem
T2 sequence (Q05513 1-592): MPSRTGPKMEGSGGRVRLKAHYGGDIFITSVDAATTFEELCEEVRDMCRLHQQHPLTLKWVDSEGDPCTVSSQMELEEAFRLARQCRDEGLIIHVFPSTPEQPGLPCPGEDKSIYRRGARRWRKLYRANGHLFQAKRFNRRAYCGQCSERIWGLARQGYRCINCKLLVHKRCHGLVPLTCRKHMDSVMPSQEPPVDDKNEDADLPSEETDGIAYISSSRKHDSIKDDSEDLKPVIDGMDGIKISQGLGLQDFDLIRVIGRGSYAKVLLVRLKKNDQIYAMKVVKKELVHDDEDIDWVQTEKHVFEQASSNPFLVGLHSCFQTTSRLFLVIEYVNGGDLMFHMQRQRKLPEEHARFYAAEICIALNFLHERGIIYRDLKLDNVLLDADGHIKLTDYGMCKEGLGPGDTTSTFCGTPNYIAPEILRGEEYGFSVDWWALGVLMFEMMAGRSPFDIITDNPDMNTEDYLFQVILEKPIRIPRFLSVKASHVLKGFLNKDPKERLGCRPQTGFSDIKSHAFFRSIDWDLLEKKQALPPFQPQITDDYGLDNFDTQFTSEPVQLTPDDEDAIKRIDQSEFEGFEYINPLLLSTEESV
Procedure: as §1, §2, §3, §4, §5

PKC = experiment: In vitro phosphorylation by PKC (average of isoforms alpha, epsilon, delta, theta); details: average over PKC-theta, -epsilon and -alpha at 10 and 1 uM peptide, relative to best substrate
Procedure: as §2, §3, §4
For kinase assays done at the standard peptide concentration of 10 μM, the peptide concentration in the reaction mixture becomes 5 μM after addition of the stop solution; consequently 10 μl of the reaction (50 pMoles of peptide) was transferred to the HBC plate. More generally, the amount of reaction mixture transferred was estimated to be about 50 pMoles of peptide. […] The HBC plates were incubated for 0.5 to 1.5 hr at room temperature for complete binding of biotinylated peptides to plate-bound streptavidin. The HBC plates were then washed extensively with PBS/Tween. Five washes were done routinely and additional wash steps were added if the wash solution removed from the plate had measurable radioactivity as detected using a Geiger counter. This step is essential to obtaining a good the signal to noise ratio because the fraction of radioactivity incorporated in the peptides was a tiny fraction of the total in the reaction mixture. The wells were air-dried. A volume of 40-50 μl of microScint-20 (Packard Instruments) was added to each well. The plates were covered with stick-on film sheet. Radioactive emissions were measured in a TopCount NXT Microplate Scintillation and Luminescence Counter (Packard Instruments). Typically samples were counted for 5 minutes (or more) to improve the signal to noise ratio when counts were low.
Many peptides that are good substrates for PKC enzymes were identified using the methods of the invention. For example, Tables 4 and 5 provide a listing of peptides identified as potentially useful kinase substrates. […]

Substance | phosphorylation by PKC alpha (PKC-alpha; peptide concentration 1 uM) | phosphorylation by PKC alpha (PKC-alpha; peptide concentration 10 uM) | phosphorylation by PKC zeta (PKC-zeta; peptide concentration 1 uM) | phosphorylation by PKC zeta (PKC-zeta; peptide concentration 10 uM) | average (phosphorylation by PKC-theta, -delta, -epsilon, -alpha) (PKC)
130 (EYLERRASRRRAV) [compound 130] | 38 | 38 | 36 | 39 | 39
131 (WKGKRRSKARKKRK) [compound 131] | 49 | 22 | 7 | 6 | 38
132 (GFLNEPLSSKSQRRKSLKLK) [compound 132] | 24 | 30 | 19 | 61 | 38
133 (LEKRGMLGKRPRRKSSRRKK) [compound 133] | 17 | 16 | 27 | 30 | 37
134 (RSRSRSRSKSKDKRKSRKRS) [compound 134] | 54 | 39 | 5 | 5 | 34
135 (KKKFRTPSFLKKSKK) [compound 135] | 56 | 19 | 11 | 13 | 33
136 (RARRDSLKKIEIW) [compound 136] | 26 | 28 | 6 | 9 | 32
137 (PSKSPSKKKKKFRTPSFLKK) [compound 137] | 34 | 38 | 4 | 5 | 31
138 (EYLERRASRRRAV) [compound 138] | 17 | 20 | 31 | 61 | 31
139 (RPTPGDGEKRSRIKKSKKRK) [compound 139] | 39 | 44 | 1 | 1 | 30
140 (TELEGGFSRQRKRKLSFRRR) [compound 140] | 12 | 15 | 24 | 49 | 30
141 (VTDSQKRREILSRRPSYRKI) [compound 141] | 24 | 25 | 26 | 78 | 29
142 (ERHVAQKKSRLRRRASQLKI) [compound 142] | 16 | 21 | 22 | 37 | 28
143 (VRYTPYTISPYNRKGSFRKQ) [compound 143] | 38 | 19 | 22 | 79 | 28
144 (LSSMFGTLPRKSRKGSVRKQ) [compound 144] | 31 | 20 | 16 | 54 | 28
145 (ISDFGLAKKLAVGRHSFSRR) [compound 145] | 21 | 30 | 25 | 61 | 27
146 (QAQRQIKRGAPPRRSSIRNA) [compound 146] | 20 | 24 | 32 | 56 | 27

Source: patent publication US20050064507A1, “Determining kinase specificity” (priority 2003, published 2005)
